This is an account of results in article doi:10.1101/2024.11.11.622902.

Several values for one entry are separate records, joined by “and”; a condition that tells them apart may be missing. Equal entries are not always repeated. Where two headings read alike, the source gives them in different places.

In assay [1] the target is human glyceraldehyde-3-phosphate dehydrogenase (hGAPDH), wild type (human). The experiment in a line: native MS.
Assay [2] has the same target. The experiment in a line: native MS. The source holds these as a separate data set.
Assay [3] shares this target. Briefly: SEC. For orientation: SEC sorts molecules by how far they enter the pores of the column.
For assay [4] the target is unchanged. The experiment in a line: SEC. This is another data set of the same source.
Assay [5] concerns the target S-nitrosylated human GAPDH (hGAPDH treated with S-nitrosocysteine, CysNO) (human). Briefly: native MS.
The target in assay [6] is porcine glyceraldehyde-3-phosphate dehydrogenase (pGAPDH), wild type (pig (Sus scrofa)). Briefly: SEC.
For assay [7] the target is unchanged. Briefly: SEC. This is another data set of the same source.
Assay [8] shares this target. The experiment in a line: SEC. This is another data set of the same source.
For assay [9] the target is unchanged. Briefly: SEC. This is another data set of the same source.
Assay [10] shares this target. The experiment in a line: SEC. The source holds these as a separate data set.
The target is the same in assay [11]. The experiment in a line: SEC. The source holds these as a separate data set.

One may read the stoichiometry N as the number of molecules, sites or subunits per partner or assembly.

As for “human glyceraldehyde-3-phosphate dehydrogenase (hGAPDH), wild type (enzyme)”, the stoichiometry N in [1], in [2], in assay [3] and in assay [4] was 4 each time.
“S-nitrosylated human GAPDH (hGAPDH treated with S-nitrosocysteine, CysNO) (enzyme)”: in assay [5], the stoichiometry N stood at 4.
Consider “porcine glyceraldehyde-3-phosphate dehydrogenase (pGAPDH), wild type (enzyme)”, for which the stoichiometry N in assay [6] was 4; in [7], 4 and 2; in assay [8] it was 2; in assay [9] it was 4; in assay [10], 4; in [11], 4.
